The chains are these.
B1: DGL441 (bispecific antibody, human IgG1, lambda)
heavy 1: not shown
heavy 2: EVQLVESGGGLVQPGGSLRLSCAASGFTFSTYDMHWVRQATGKGLEWVSLIDTAGDTYYPDSVKGRFTISRENAKNSLYLQMNSLRAGDTAVYYCAREGWGYFDYWGQGALVTVSSASTKGPSVFPLAPSSKSTSGGTAALGCLVKDYFPEPVTVSWNSGALTSGVHTFPAVLQSSGLYSLSSVVTVPSSSLGTQTYICNVNHKPSNTKVDKKVEPKSCDKTHTCPPCPAPEAAGAPSVFLFPPKPKDTLMISRTPEVTCVVVDVSHEDPEVKFNWYVDGVEVHNAKTKPREEQYNSTYRVVSVLTVLHQDWLNGKEYKCKVSNKALPAPIEKTISKAKGQPREPQVCTLPPSRDELTKNQVSLSCAVKGFYPSDIAVEWESNGQPENNYKTTPPVLDSDGSFFLVSKLTVDKSRWQQGNVFSCSVMHEALHNRFTQKSLSLSPG
light: QSALTQPPSVSGSPGQSVTISCTGTSSDVGSYNRVSWYQQPPGTAPKLMIYEVSNRPSGVPDRFSGSKSGNTASLTISGLQAEDEADYYCSLYTGSSTVVFGGGTKVTVLGQPKAAPSVTLFPPSSEELQANKATLVCLISDFYPGAVTVAWKADSSPVKAGVETTTPSKQSNNKYAASSYLSLTPEQWKSHRSYSCQVTHEGSTVEKTVAPTECS
B2: DGL527 (bispecific antibody, V domains shown)
V domain 1: EVQLVESGGGLVQPGGSLTLSCTASGFRFSDRSMGWYRQAPGKQRELVAAITVGGSTNYADSVKGRFTISRDNAKNTVYLQMNSLKPEDTALYYCNRRYPPDDYWGQGTQVTVEP
V domain 2: QVQLVESGGGLVRPGGSLRLSCAASGFTFSSNGMHWFRQAPGKGLEWVSSIGSGGTSIYYADSVKGRFTISRDNAKNTLYLQMNSLKSDDTAVYYCSKEVTGATRGQGTQVTVEP
B3: DGL533 (bispecific antibody, V domains shown)
V domain 1: B2 V domain 1
V domain 2: QVQLVESGGGLVQAGGSLRLSCAASGRTFSSYAMGWFRQAPGKEREFVSAISWSGLSTYYVESVQGRFTISRDNAKNTVYLQMNSLKPEDTAVYYCAASRIYTNYVARSYEYDDWGQGTQVTVEP
B4: DGL445 (bispecific antibody, human IgG1, lambda)
heavy 1: not shown
heavy 2: QVQLVQPGAEVKKPGASVKVSCKASGYTFTGYYMHWVRQAPGQGLEWMGWINPKSGGTNYAQKFQGRVTMTRDTSISTAYMELTRLRSDDTAVYYCARDQGYGDYVLKHWGQGTLVTVSSASTKGPSVFPLAPSSKSTSGGTAALGCLVKDYFPEPVTVSWNSGALTSGVHTFPAVLQSSGLYSLSSVVTVPSSSLGTQTYICNVNHKPSNTKVDKKVEPKSCDKTHTCPPCPAPEAAGAPSVFLFPPKPKDTLMISRTPEVTCVVVDVSHEDPEVKFNWYVDGVEVHNAKTKPREEQYNSTYRVVSVLTVLHQDWLNGKEYKCKVSNKALPAPIEKTISKAKGQPREPQVCTLPPSRDELTKNQVSLSCAVKGFYPSDIAVEWESNGQPENNYKTTPPVLDSDGSFFLVSKLTVDKSRWQQGNVFSCSVMHEALHNRFTQKSLSLSPG
light: SYVLTQPPSVSVAPGQTARITCGGDNIGSKSVHWYQQKPGQAPVPVVYDDSDRPSGIPERFSGSNSGNTATLTISRVEAGDEADYYCQVWDSSSDHVVFGGGTKLTVLGQPKAAPSVTLFPPSSEELQANKATLVCLISDFYPGAVTVAWKADSSPVKAGVETTTPSKQSNNKYAASSYLSLTPEQWKSHRSYSCQVTHEGSTVEKTVAPTECS
B5: DGL524 (bispecific antibody, V domains shown)
V domain 1: EVQLVESGGGLVQPGGSLRLFCAASRSIFNINIMGWYRQAPGKQREWLASITSGGSTFYADSVKDRFTISRDSVKNTVYLQMNSLKPEDTAAYYCNRYRSVPLNTVYPWGQGTLVTVEP
V domain 2: QVQLVESGGGLVQAGGSLRLSCAASGRIFSAYRMGWFRQAPGKEREFVAGITWRGQTTYYAASVKGRFTISKDNAKKTVYLQMNSLKPEETAVYYCAVETNGLGRWDRPSEYDYWGQGTQVTVEP
B6: DGL537 (bispecific antibody, V domains shown)
V domain 1: QVQLVESGGGLVQAGGSLRLSCLASGRTSNYFMGWFRQAPGKEREFVAAISRSGGGTWYADSVKGRFAISRDNAKNTVNLQMNSLKREDTAVYYCAADRRTGTSVYTVDEYDYWGQGTQVTVEP
V domain 2: B5 V domain 2
B7: DGL462 (bispecific antibody, V domains shown)
V domain 1: EVQLVESGGGLVQPGGSLRLSCAASGFTFQNYAMSWLRKAPGEGLEWVSVINSGGGSTLYADSVKGRFTISRDNAKNTLYLQMHSLKSEDTAVYFCAKRRDDSTFGSLLYTHRGQGTQVTVEP
V domain 2: B5 V domain 2
B8: DGL478 (bispecific antibody, V domains shown)
V domain 1: QVQLVESGGGLVQAGGSLRLSCAAPGRYAVGWFRQAPGKEYEFVAAITVSGGSKYYEDSVKGRFAISRDNAKNTVYLQMNSLKAEDTAVYYCAARTPKFGSGWYNRRGEYDYWGQGTQVTVEP
V domain 2: B5 V domain 2
B9: DGL584 (bispecific antibody, V domains shown)
V domain 1: QVQLQESGGGLVQAGGSLRLSCAASGSIASINAMGWYRQAPGKQRDFVARIQLSGSTNYAHSVRGRFTISRDNAKNTVYLQMNNLKPEDTAVYVCAASNTGSLYGLRNYWGQGTQVTVEP
V domain 2: QVQLVESGGGLVQPGGSLRLSCAASGFTFSSKAMHWFRQAPGKGLEWVSSINSGGAITYYKDSVKGRFTVSRDNAKNILYLEMNSLKPEDTALYYCATDTDGRTRGQGTQVTVEP
B10: DGL464 (bispecific antibody, V domains shown)
V domain 1: QVQLVESGGGLVQAGGSLRLSCAASGRAFSRYSMGWFRQAPGKEREFVAANYWSNGWTDYADTVKGRFSISRDNAKNTVYLQMNSLKPEDTAVYYCAGRSSSIPSADVVGYDYWGQGTQVTVEP
V domain 2: QVQLVESGGGLVQPGGSLRLSCAASGFTFSNYAMSWVRQAPGKGLEWVSAINSDGTSTSYADSVKGQFTISRDNAKNTLYLQMNSLKPEDTAVYYCTKWEGDTDSDYKFKDYWGQGTQVTVEP
B11: DGL599 (bispecific antibody, human IgG1, V domains shown)
V domain 1: EVQLVESGGGLVQAGGSLRLSCAASGSKFSFNAMGWYRQTPGKQRELVAIIINGDMINYADSVKGRFTISRDNAKNTMYLQMNSLKPEDTAVYYCKMTRYVYDYWGQGTQVTVEP
V domain 2: QVQLVQSGAEVKKPGASVRVSCKASGYTFTSYYIHWVRQAPGQGLEWMGIINPSGGSTSYAQKFQGRVTMTRDTSTTTVYMELSSLRSEDTAVYYCAKSNWAYAFDIWGQGTMVTVSS
B12: DGL575 (bispecific antibody, V domains shown)
V domain 1: QVQLVESGGGLVQAGGSLRLSCAASRSISSFNEMAWYRQAPGEQRELVATIVSTVGFTNYADSVKGRFTISRDNAKNTVYLQMNSLKAEDTAVYYCNARRISTDYWGQGTQVTVEP
V domain 2: QVQLQESGPGLVKPSQTLSLTCTVSGGSITTNYYYWSWIRQPPGKGLEWMGAIAYSGSTYYSPSLKSRTSISRDTSKNQFTLQLSSVTPEDTAVYYCASGINFYSNYPTLNEYDYWGQGTQVTVEP
B13: DGL574 (bispecific antibody, V domains shown)
V domain 1: B12 V domain 1
V domain 2: QVQLVESGGGLVQAGGSLRLSCAASGRTFSRYRMGWFRQAPGKEREFVAAITKSGATTYDADSVKGRFTISRDNAKNTLYLQMNSLKPEDTAVYYCAASYHSNWWPKNADEYAYWGQGTQVTVEP
B14: DGL499 (bispecific antibody, V domains shown)
V domain 1: EVQLVESGGGLVQAGGSLRLSCAASGLTFRNYAMAWFRQAPGKEREFVAGITWGGGLTHYVDSVKGRFTISRDNGKNTVYLQMNSLKSEDTAVYYCAGKTQGSTWYHLTPDGYDYWGQGTQVTVEP
V domain 2: QVQLVESGGGLVQPGGSLRLSCAASGFTFEPYDMSWFRQAPGKGPEWVSAIDKGGGAGATYYADSVKGRFTISRDNAKKTLYLQMKSLKPEDTAVYYCAITAGPYSDSTPRVAYRGEGTQVTVEP
B15: DGL504 (bispecific antibody, V domains shown)
V domain 1: B14 V domain 1
V domain 2: B3 V domain 2
B16: DGL454 (bispecific antibody, V domains shown)
V domain 1: QVQLQESGGALVQPGGSLRLSCVVSGFTSDYFAIGWFRQAPGKEREGVSCIGSSDGSTIYSDSVKGRFTISRDNAKNTVYLQMNSLKPEDTGVYYCALDRGRRTIIGYACYATMKYWGKGTPVTVEP
V domain 2: B14 V domain 2
B17: DGL484 (bispecific antibody, V domains shown)
V domain 1: QVQLVESGGGLVQAGGSLRLSCAASARIFNSYAVAWFRQTPGKEREFVASISWSGGSTNYADSVKGRFTISRDNAKNTVFLQMNSLKPADTAVYYCAADRNYYPSVLGKYTYWGQGTQVTVEP
V domain 2: B14 V domain 2

Sequence of human IL-12 receptor (IL-12Rβ1 and IL-12Rβ2) on HEK-Blue IL-12 cells (Q99665 24-862, chain 2 of 2, other chains not shown): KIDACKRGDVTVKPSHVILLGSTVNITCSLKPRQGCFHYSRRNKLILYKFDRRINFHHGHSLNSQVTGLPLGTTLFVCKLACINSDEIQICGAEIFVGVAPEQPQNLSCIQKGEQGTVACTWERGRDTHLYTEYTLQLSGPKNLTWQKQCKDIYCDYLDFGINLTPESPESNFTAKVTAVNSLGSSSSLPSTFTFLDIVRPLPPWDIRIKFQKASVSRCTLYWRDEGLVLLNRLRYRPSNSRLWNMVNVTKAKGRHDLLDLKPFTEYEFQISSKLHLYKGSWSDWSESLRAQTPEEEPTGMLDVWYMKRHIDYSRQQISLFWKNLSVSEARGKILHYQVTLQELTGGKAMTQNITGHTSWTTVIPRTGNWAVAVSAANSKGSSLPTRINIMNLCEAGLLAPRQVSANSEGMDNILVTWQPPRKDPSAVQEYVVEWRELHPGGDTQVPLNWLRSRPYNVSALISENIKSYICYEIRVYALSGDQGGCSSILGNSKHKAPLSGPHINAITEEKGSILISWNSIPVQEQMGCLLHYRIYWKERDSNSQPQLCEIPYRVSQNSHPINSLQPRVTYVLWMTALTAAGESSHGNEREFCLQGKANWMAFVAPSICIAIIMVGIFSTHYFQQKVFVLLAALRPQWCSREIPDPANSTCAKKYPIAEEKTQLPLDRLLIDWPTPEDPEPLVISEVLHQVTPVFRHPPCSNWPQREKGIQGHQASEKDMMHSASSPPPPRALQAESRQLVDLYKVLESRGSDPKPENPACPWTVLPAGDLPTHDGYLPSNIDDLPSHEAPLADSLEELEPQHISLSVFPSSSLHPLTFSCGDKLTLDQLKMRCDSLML

This test concerns the target human IL-12 receptor (IL-12Rβ1 and IL-12Rβ2) on HEK-Blue IL-12 cells (human, UniProt P42701 24-662; Q99665 24-862). The experiment in a line: cell-based or functional assay.
For orientation: EC50 means the concentration that produces a half-maximal response. Low readings indicate a more potent agent, high ones a less potent agent. Turning to B1, the EC50 was 4e-11 M (implied) and the “Max Absorbance” value was found to be 0.45.

Turning to B2, the EC50 was greater than 100 nM and the “Max Absorbance” value stood at 0.54.

In the case of B3, the EC50 was greater than 100 nM and the “Max Absorbance” value is 0.42.

Consider B4, for which the half-maximal effective concentration (EC50) was greater than 100 nM and the “Max Absorbance” value stood at 0.42.

For the molecule B5, the 50% effective concentration (EC50) was 4.4e-10 M (implied) and the “Max Absorbance” value worked out at 0.58.

Consider B6, for which the concentration for a half-maximal effect (EC50) is 5.9e-10 M (implied) and the “Max Absorbance” value stood at 0.55.

Turning to B7, the EC50 was 1.2e-09 M (implied) and the “Max Absorbance” value was determined as 0.52.

B8: the concentration for a half-maximal effect (EC50) is 4e-09 M (implied) and the “Max Absorbance” value worked out at 0.4.

As to B9, the EC50 is greater than 100 nM and the “Max Absorbance” value is 0.58.

On to B10, for which the EC50 is greater than 100 nM and the “Max Absorbance” value is 0.47.

In the case of B11, the EC50 is greater than 100 nM and the “Max Absorbance” value was determined as 0.48.

In the case of B12, the EC50 was greater than 100 nM and the “Max Absorbance” value stood at 0.43.

As for B13, the 50% effective concentration (EC50) was greater than 100 nM and the “Max Absorbance” value is 0.41.

Consider B14, for which the concentration for a half-maximal effect (EC50) is 8.1e-09 M (implied) and the “Max Absorbance” value worked out at 0.56.

As for B15, the EC50 is greater than 100 nM and the “Max Absorbance” value amounted to 0.41.

On to B16, for which the EC50 was greater than 100 nM and the “Max Absorbance” value was determined as 0.47.

Take B17: the half-maximal effective concentration (EC50) is 9.7e-09 M (implied) and the “Max Absorbance” value amounted to 0.54.
